Reference: publication PMC2783235
One block for each substance: values may come before it.

Tests used:
[1] = biological target: I67C (single-Cys mutant of FT-HT-Xa) (S. cerevisiae) (UniProt D6VTK4); experiment: SDS-PAGE and western blot of membranes
[2] = biological target: I67C (single-Cys mutant of FT-HT-Xa) (S. cerevisiae) (UniProt D6VTK4); experiment: cross-linking
[3] = biological target: I67C (single-Cys mutant of FT-HT-Xa) (S. cerevisiae) (UniProt D6VTK4); experiment: cross-linking; remark: listed apart in the source
[4] = biological target: I67C (single-Cys mutant of FT-HT-Xa) (S. cerevisiae) (UniProt D6VTK4); experiment: cross-linking; remark: listed apart in the source
[5] = biological target: L66C (single-Cys mutant of FT-HT-Xa) (S. cerevisiae) (UniProt D6VTK4); experiment: SDS-PAGE and western blot of membranes
[6] = biological target: L66C (single-Cys mutant of FT-HT-Xa) (S. cerevisiae) (UniProt D6VTK4); experiment: cross-linking
[7] = biological target: L66C (single-Cys mutant of FT-HT-Xa) (S. cerevisiae) (UniProt D6VTK4); experiment: cross-linking; remark: listed apart in the source
[8] = biological target: L66C (single-Cys mutant of FT-HT-Xa) (S. cerevisiae) (UniProt D6VTK4); experiment: cross-linking; remark: listed apart in the source
[9] = biological target: M69C (single-Cys mutant of FT-HT-Xa) (S. cerevisiae) (UniProt D6VTK4); experiment: SDS-PAGE and western blot of membranes
[10] = biological target: M69C (single-Cys mutant of FT-HT-Xa) (S. cerevisiae) (UniProt D6VTK4); experiment: cross-linking
[11] = biological target: M69C (single-Cys mutant of FT-HT-Xa) (S. cerevisiae) (UniProt D6VTK4); experiment: cross-linking; remark: listed apart in the source
[12] = biological target: M69C (single-Cys mutant of FT-HT-Xa) (S. cerevisiae) (UniProt D6VTK4); experiment: cross-linking; remark: listed apart in the source
[13] = biological target: T278C (single-Cys mutant of FT-HT-Xa) (S. cerevisiae) (UniProt D6VTK4); experiment: SDS-PAGE and western blot of membranes
[14] = biological target: T278C (single-Cys mutant of FT-HT-Xa) (S. cerevisiae) (UniProt D6VTK4); experiment: cross-linking
[15] = biological target: T278C (single-Cys mutant of FT-HT-Xa) (S. cerevisiae) (UniProt D6VTK4); experiment: cross-linking; remark: listed apart in the source
[16] = biological target: T278C (single-Cys mutant of FT-HT-Xa) (S. cerevisiae) (UniProt D6VTK4); experiment: cross-linking; remark: listed apart in the source
[17] = biological target: T279C (single-Cys mutant of FT-HT-Xa) (S. cerevisiae) (UniProt D6VTK4); experiment: SDS-PAGE and western blot of membranes
[18] = biological target: T279C (single-Cys mutant of FT-HT-Xa) (S. cerevisiae) (UniProt D6VTK4); experiment: cross-linking
[19] = biological target: T279C (single-Cys mutant of FT-HT-Xa) (S. cerevisiae) (UniProt D6VTK4); experiment: cross-linking; remark: listed apart in the source
[20] = biological target: T279C (single-Cys mutant of FT-HT-Xa) (S. cerevisiae) (UniProt D6VTK4); experiment: cross-linking; remark: listed apart in the source
[21] = biological target: L284C (single-Cys mutant of FT-HT-Xa) (S. cerevisiae) (UniProt D6VTK4); experiment: radioligand binding
[22] = biological target: T65C (single-Cys mutant of FT-HT-Xa) (S. cerevisiae) (UniProt D6VTK4); experiment: radioligand binding
[23] = biological target: L64C (single-Cys mutant of FT-HT-Xa) (S. cerevisiae) (UniProt D6VTK4); experiment: radioligand binding
[24] = biological target: A296C (single-Cys mutant of FT-HT-Xa) (S. cerevisiae) (UniProt D6VTK4); experiment: radioligand binding
[25] = biological target: V286C (single-Cys mutant of FT-HT-Xa) (S. cerevisiae) (UniProt D6VTK4); experiment: radioligand binding
[26] = biological target: W295C (single-Cys mutant of FT-HT-Xa) (S. cerevisiae) (UniProt D6VTK4); experiment: radioligand binding
[27] = biological target: I67C (single-Cys mutant of FT-HT-Xa) (S. cerevisiae) (UniProt D6VTK4); experiment: radioligand binding
[28] = biological target: L66C (single-Cys mutant of FT-HT-Xa) (S. cerevisiae) (UniProt D6VTK4); experiment: radioligand binding
[29] = biological target: S293C (single-Cys mutant of FT-HT-Xa) (S. cerevisiae) (UniProt D6VTK4); experiment: radioligand binding
[30] = biological target: L289C (single-Cys mutant of FT-HT-Xa) (S. cerevisiae) (UniProt D6VTK4); experiment: radioligand binding
[31] = biological target: V68C (single-Cys mutant of FT-HT-Xa) (S. cerevisiae) (UniProt D6VTK4); experiment: radioligand binding
[32] = biological target: L291C (single-Cys mutant of FT-HT-Xa) (S. cerevisiae) (UniProt D6VTK4); experiment: radioligand binding
[33] = biological target: S288C (single-Cys mutant of FT-HT-Xa) (S. cerevisiae) (UniProt D6VTK4); experiment: radioligand binding
[34] = biological target: L283C (single-Cys mutant of FT-HT-Xa) (S. cerevisiae) (UniProt D6VTK4); experiment: radioligand binding
[35] = biological target: L287C (single-Cys mutant of FT-HT-Xa) (S. cerevisiae) (UniProt D6VTK4); experiment: radioligand binding
[36] = biological target: S292C (single-Cys mutant of FT-HT-Xa) (S. cerevisiae) (UniProt D6VTK4); experiment: radioligand binding
[37] = biological target: V68C (single-Cys mutant of FT-HT-Xa) (S. cerevisiae) (UniProt D6VTK4); experiment: SDS-PAGE and western blot of membranes
[38] = biological target: V68C (single-Cys mutant of FT-HT-Xa) (S. cerevisiae) (UniProt D6VTK4); experiment: cross-linking
[39] = biological target: V68C (single-Cys mutant of FT-HT-Xa) (S. cerevisiae) (UniProt D6VTK4); experiment: cross-linking; remark: listed apart in the source
[40] = biological target: V68C (single-Cys mutant of FT-HT-Xa) (S. cerevisiae) (UniProt D6VTK4); experiment: cross-linking; remark: listed apart in the source

percent dimer [5]: 12.3%
percent dimer [6]: 11.9%
percent dimer [7]: 11.9%
percent dimer [8]: 13.2%
Substance: L66C (single-Cys mutant of FT-HT-Xa) (from UniProt D6VTK4 1-431) (receptor)

percent dimer [9]: 17.7%
percent dimer [10]: 14.2%
percent dimer [11]: 28.9%
percent dimer [12]: 17%
Substance: M69C (single-Cys mutant of FT-HT-Xa) (from UniProt D6VTK4 1-431) (receptor)

Kd relative to FT-HT-Xa (relative to FT-HT-Xa) [21]: 1.1
Kd relative to FT-HT-Xa (relative to FT-HT-Xa) [22]: 1.5
Kd relative to FT-HT-Xa (relative to FT-HT-Xa) [23]: 2.5
Kd relative to FT-HT-Xa (relative to FT-HT-Xa) [24]: 0.4
Kd relative to FT-HT-Xa (relative to FT-HT-Xa) [25]: 1.9
Kd relative to FT-HT-Xa (relative to FT-HT-Xa) [26]: 1.3
Kd relative to FT-HT-Xa (relative to FT-HT-Xa) [27]: 2.2
Kd relative to FT-HT-Xa (relative to FT-HT-Xa) [28]: 0.5
Kd relative to FT-HT-Xa (relative to FT-HT-Xa) [29]: 2.5
Kd relative to FT-HT-Xa (relative to FT-HT-Xa) [30]: 2.1
Kd relative to FT-HT-Xa (relative to FT-HT-Xa) [31]: 1.1
Kd relative to FT-HT-Xa (relative to FT-HT-Xa) [32]: 1.7
Kd relative to FT-HT-Xa (relative to FT-HT-Xa) [33]: 4.1
Kd relative to FT-HT-Xa (relative to FT-HT-Xa) [34]: 4.7
Kd relative to FT-HT-Xa (relative to FT-HT-Xa) [35]: 1.1
Kd relative to FT-HT-Xa (relative to FT-HT-Xa) [36]: 0.2
Substance: Tritiated α-factor ([3H]α-factor) (peptide)

More lines, now with the values behind:

Substance: I67C (single-Cys mutant of FT-HT-Xa) (from UniProt D6VTK4 1-431) (receptor)
percent dimer [1]: 19.3%
percent dimer [2]: 17%
percent dimer [3]: 18%
percent dimer [4]: 17.4%

Substance: T278C (single-Cys mutant of FT-HT-Xa) (from UniProt D6VTK4 1-431) (receptor)
percent dimer [13]: 15.1%
percent dimer [14]: 65.8%
percent dimer [15]: 12.4%
percent dimer [16]: 12.5%

Substance: T279C (single-Cys mutant of FT-HT-Xa) (from UniProt D6VTK4 1-431) (receptor)
percent dimer [17]: 17.3%
percent dimer [18]: 10.1%
percent dimer [19]: 10.9%
percent dimer [20]: 15.8%

Substance: V68C (single-Cys mutant of FT-HT-Xa) (from UniProt D6VTK4 1-431) (receptor)
percent dimer [37]: 28.5%
percent dimer [38]: 99.2%
percent dimer [39]: 98.8%
percent dimer [40]: 98.3%
